Values of other authors, collected in patent US11147882B2, “Method for preserving and stabilizing proteins for formulations of sanitary, pharmaceutical and cosmetic products” (SANI-RED, S.L., priority 2013, dated 2021).

Substance: EGF: epidermal growth factor, first polypeptide isolated and characterized as a growth factor; rhEGF is the recombinant human form
- half-life of rhEGF at 25° C. (25° C., based on the Arrhenius equation (Yang et al. 2005)): 6.93 h
- half-life at 37 C (37 °C, pH 7.2): 3.47 h
- half-life (mean life, useful life) of EGF (EGF normally, published studies): 7 h
